Laboratory results published in paper PMC5727262, “Molecular mechanism of K65 acetylation-induced attenuation of Ubc9 and the NDSM interaction” (Scientific Reports, 2017).

Target: Ac-Ubc9K65 (Ubc9 acetylated at K65), P63279
Assay: ITC; 2 μl additions of peptide to 200 μl of WT Ubc9 or Ac-Ubc9K65; 25 °C; pH 8.0, 20 mM potassium phosphate, 100 mM NaCl; iTC200; fitted assuming 1:1 binding stoichiometry

Chain of Ac-Ubc9K65 (Ubc9 acetylated at K65), P63279 (P63279 whole entry): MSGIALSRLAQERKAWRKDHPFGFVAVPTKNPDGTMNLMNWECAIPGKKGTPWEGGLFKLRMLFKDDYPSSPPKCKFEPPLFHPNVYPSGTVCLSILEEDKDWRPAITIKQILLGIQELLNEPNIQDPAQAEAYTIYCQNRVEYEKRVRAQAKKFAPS

Kd: 105 µM
Binder: VKVEVKEEEESSSN (modifications not checked) [CBP NDSM peptide]
